Numbered stars: 1 amine (or outer) side, 2 acyl side, 3 side chain; on linkers, the order of the positions; unused ones are H or OH. Bridge positions count the residues as written; N and C are the ends. * marks the point of attachment. C20 diacid = O=C(O)CCCCCCCCCCCCCCCCCCC(=O)*; γGlu = O=C(O)[C@H](CCC(=O)[*:2])N[*:1]; AEEA = NCCOCCOCC(=O)O
What was measured:
[1] = target: T1, human calcitonin receptor (human, UniProt P30988 25-474); experiment: ratio of IC50 at hCTR to IC50 at the human amylin receptor (reference)
T1 construct: whole, on cells; also called hCTR; hCT
T1 sequence (looked up): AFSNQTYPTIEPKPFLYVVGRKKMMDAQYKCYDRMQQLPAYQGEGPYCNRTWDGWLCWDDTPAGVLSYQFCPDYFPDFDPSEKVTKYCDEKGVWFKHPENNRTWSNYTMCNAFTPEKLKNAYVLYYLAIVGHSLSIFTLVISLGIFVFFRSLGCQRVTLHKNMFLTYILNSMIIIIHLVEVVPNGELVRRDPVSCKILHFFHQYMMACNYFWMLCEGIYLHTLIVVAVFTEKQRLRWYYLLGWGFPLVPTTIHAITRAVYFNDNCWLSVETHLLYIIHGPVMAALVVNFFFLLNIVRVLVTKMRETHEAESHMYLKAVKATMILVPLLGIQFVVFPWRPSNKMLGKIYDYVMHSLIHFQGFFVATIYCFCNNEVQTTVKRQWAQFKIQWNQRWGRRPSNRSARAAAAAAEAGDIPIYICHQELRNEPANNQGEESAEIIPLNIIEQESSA
Experimental: The resulting pellet was resuspended, homogenized and centrifuged (20.000 rpm, 15 min) in a buffer containing 20 mM Na-HEPES and 0.1 mM EDTA (pH 7.4, buffer 2). The resulting pellet was resuspended in buffer 2 and protein concentration was measured (BCA protein Assay, Pierce). The homogenate was kept cold during the whole procedure. The membranes were kept at −80° C. until use. The assay was performed in a 384 well Optiplate (PerkinElmer) in a total volume of 40 ul. Membranes were mixed with SPA beads. Final concentration of membranes 35 ng/μL final and SPA beads was 0.05 mg/well. Test-compounds were dissolved in DMSO and further diluted in assay buffer (50 mM Hepes, pH 7.4, 1 mM CaCl2, 5 mM MgCl₂, 0.1% OA and 0.02% Tween20). […] The final mixture was incubated with shaking at 400 rpm for 120 min at 25° C. prior to centrifugation (1500 rpm, 10 min). Samples were analyzed on TopCounter™ (Packard). The IC₅₀ was calculated using (one site binding competition analysis) GraphPad Prism5 as a measure of receptor affinity.
Membranes were prepared in the following way; the cells were rinsed with PBS and incubated with Versene for approximately 5 min before harvesting. The cells were flushed with PBS and the cell-suspension was centrifuged for 5 min at 1000 rpm. Cells were homogenized (Ultrathurrax) in a buffer containing 20 mM Na-HEPES and 10 mM EDTA (pH 7.4) and centrifuged at 20.000 rpm for 15 min. The resulting pellet was resuspended, homogenized and centrifuged (20.000 rpm, 15 min) in a buffer containing 20 mM Na-HEPES and 0.1 mM EDTA (pH 7.4, buffer 2). The resulting pellet was resuspended in buffer 2 and protein concentration was measured (BCA protein Assay, Pierce). The homogenate was kept cold during the whole procedure. The membranes were kept at −80° C. until use. Assay was performed in a 384 well Optiplate (PerkinElmer) in a total volume of 40 ul. Membranes were mixed with SPA beads.

[2] = target: T1, human calcitonin receptor; experiment: SPA competition binding, membranes with human calcitonin receptor, displacement of 125I-calcitonin (Assay VII)
Experimental: Membranes were prepared in the following way; the cells were rinsed with PBS and incubated with Versene for approximately 5 min before harvesting. The cells were flushed with PBS and the cell-suspension was centrifuged for 5 min at 1000 rpm. Cells were homogenized (Ultrathurrax) in a buffer containing 20 mM Na-HEPES and 10 mM EDTA (pH 7.4) and centrifuged at 20.000 rpm for 15 min. The resulting pellet was resuspended, homogenized and centrifuged (20.000 rpm, 15 min) in a buffer containing 20 mM Na-HEPES and 0.1 mM EDTA (pH 7.4, buffer 2). The resulting pellet was resuspended in buffer 2 and protein concentration was measured (BCA protein Assay, Pierce). The homogenate was kept cold during the whole procedure. The membranes were kept at −80° C. until use. Assay was performed in a 384 well Optiplate (PerkinElmer) in a total volume of 40 ul. Membranes were mixed with SPA beads. Final concentration of membranes 35 ng/μL final and Final concentration of SPA beads was 0.05 mg/well. Test-compounds were dissolved in DMSO and further diluted in assay buffer (50 mM Hepes, pH 7.4, 1 mM CaCl2, 5 mM MgCl₂, 0.1% OA and 0.02% Tween20). […] The final mixture was incubated for 120 min with shaking at 400 rpm at 25° C. prior to centrifugation (1500 rpm, 10 min). Samples were analyzed on TopCounter™ (Packard). The […] was calculated using (one site binding competition analysis) GraphPad Prism5 as a measure of receptor affinity.

B1: N^α1-[2-[2-[2-[[2-[2-[2-[[(4S)-4-carboxy-4-(19-carboxynonadecanoylamino)butanoyl]amino]ethoxy]ethoxy]acetyl]amino]ethoxy]ethoxy]acetyl]-[Glu14,Arg17,Pro21,Pro27 … (peptide)
peptide: {C20 diacid-γGlu-AEEA-AEEA}-KCNTATCATQRLAEFLRHSSPNFGAIPSSTNVGSNTP-NH2
modifications: disulfide 2-7
SMILES: CC[C@H](C)[C@H](NC(=O)[C@H](C)NC(=O)CNC(=O)[C@H](Cc1ccccc1)NC(=O)[C@H](CC(N)=O)NC(=O)[C@@H]1CCCN1C(=O)[C@H](CO)NC(=O)[C@H](CO)NC(=O)[C@H](Cc1c[nH]cn1)NC(=O)[C@H](CCCNC(=N)N)NC(=O)[C@H](CC(C)C)NC(=O)[C@H](Cc1ccccc1)NC(=O)[C@H](CCC(=O)O)NC(=O)[C@H](C)NC(=O)[C@H](CC(C)C)NC(=O)[C@H](CCCNC(=N)N)NC(=O)[C@H](CCC(N)=O)NC(=O)[C@@H](NC(=O)[C@H](C)NC(=O)[C@@H]1CSSC[C@H](NC(=O)[C@H](CCCCN)NC(=O)COCCOCCNC(=O)COCCOCCNC(=O)CC[C@H](NC(=O)CCCCCCCCCCCCCCCCCCC(=O)O)C(=O)O)C(=O)N[C@@H](CC(N)=O)C(=O)N[C@@H]([C@@H](C)O)C(=O)N[C@@H](C)C(=O)N[C@@H]([C@@H](C)O)C(=O)N1)[C@@H](C)O)C(=O)N1CCC[C@H]1C(=O)N[C@@H](CO)C(=O)N[C@@H](CO)C(=O)N[C@H](C(=O)N[C@@H](CC(N)=O)C(=O)N[C@H](C(=O)NCC(=O)N[C@@H](CO)C(=O)N[C@@H](CC(N)=O)C(=O)N[C@H](C(=O)N1CCC[C@H]1C(N)=O)[C@@H](C)O)C(C)C)[C@@H](C)O
notes: also called compound 20
In the case of B1, the “Ratio hCT/hAmylin binding” value [1] is reported as 3.6 and the IC50 [2] is reported as 0.787 nM.

B2: N^α1-[(4S)-4-carboxy-4-(19-carboxynonadecanoylamino)butanoyl]-[Arg17,Pro21,Pro27,Pro31,Glu35]-h-amylin (peptide)
peptide: {C20 diacid-γGlu}-KCNTATCATQRLANFLRHSSPNFGAIPSSTPVGSETY-NH2
modifications: disulfide 2-7
SMILES: CC[C@H](C)[C@H](NC(=O)[C@H](C)NC(=O)CNC(=O)[C@H](Cc1ccccc1)NC(=O)[C@H](CC(N)=O)NC(=O)[C@@H]1CCCN1C(=O)[C@H](CO)NC(=O)[C@H](CO)NC(=O)[C@H](Cc1c[nH]cn1)NC(=O)[C@H](CCCNC(=N)N)NC(=O)[C@H](CC(C)C)NC(=O)[C@H](Cc1ccccc1)NC(=O)[C@H](CC(N)=O)NC(=O)[C@H](C)NC(=O)[C@H](CC(C)C)NC(=O)[C@H](CCCNC(=N)N)NC(=O)[C@H](CCC(N)=O)NC(=O)[C@@H](NC(=O)[C@H](C)NC(=O)[C@@H]1CSSC[C@H](NC(=O)[C@H](CCCCN)NC(=O)CC[C@H](NC(=O)CCCCCCCCCCCCCCCCCCC(=O)O)C(=O)O)C(=O)N[C@@H](CC(N)=O)C(=O)N[C@@H]([C@@H](C)O)C(=O)N[C@@H](C)C(=O)N[C@@H]([C@@H](C)O)C(=O)N1)[C@@H](C)O)C(=O)N1CCC[C@H]1C(=O)N[C@@H](CO)C(=O)N[C@@H](CO)C(=O)N[C@H](C(=O)N1CCC[C@H]1C(=O)N[C@H](C(=O)NCC(=O)N[C@@H](CO)C(=O)N[C@@H](CCC(=O)O)C(=O)N[C@H](C(=O)N[C@@H](Cc1ccc(O)cc1)C(N)=O)[C@@H](C)O)C(C)C)[C@@H](C)O
notes: also called compound 28
In the case of B2, the “Ratio hCT/hAmylin binding” value [1] is reported as 20.5 and the IC50 [2] is reported as 12.5 nM.

B3: N^α1-[(4S)-4-carboxy-4-(19-carboxynonadecanoylamino)butanoyl]-[Glu14,Arg17,Pro21,Pro25,Pro28,Pro29,Pro37]-h-amylin (peptide)
peptide: {C20 diacid-γGlu}-KCNTATCATQRLAEFLRHSSPNFGPILPPTNVGSNTP-NH2
modifications: disulfide 2-7
SMILES: CC[C@H](C)[C@H](NC(=O)[C@@H]1CCCN1C(=O)CNC(=O)[C@H](Cc1ccccc1)NC(=O)[C@H](CC(N)=O)NC(=O)[C@@H]1CCCN1C(=O)[C@H](CO)NC(=O)[C@H](CO)NC(=O)[C@H](Cc1c[nH]cn1)NC(=O)[C@H](CCCNC(=N)N)NC(=O)[C@H](CC(C)C)NC(=O)[C@H](Cc1ccccc1)NC(=O)[C@H](CCC(=O)O)NC(=O)[C@H](C)NC(=O)[C@H](CC(C)C)NC(=O)[C@H](CCCNC(=N)N)NC(=O)[C@H](CCC(N)=O)NC(=O)[C@@H](NC(=O)[C@H](C)NC(=O)[C@@H]1CSSC[C@H](NC(=O)[C@H](CCCCN)NC(=O)CC[C@H](NC(=O)CCCCCCCCCCCCCCCCCCC(=O)O)C(=O)O)C(=O)N[C@@H](CC(N)=O)C(=O)N[C@@H]([C@@H](C)O)C(=O)N[C@@H](C)C(=O)N[C@@H]([C@@H](C)O)C(=O)N1)[C@@H](C)O)C(=O)N[C@@H](CC(C)C)C(=O)N1CCC[C@H]1C(=O)N1CCC[C@H]1C(=O)N[C@H](C(=O)N[C@@H](CC(N)=O)C(=O)N[C@H](C(=O)NCC(=O)N[C@@H](CO)C(=O)N[C@@H](CC(N)=O)C(=O)N[C@H](C(=O)N1CCC[C@H]1C(N)=O)[C@@H](C)O)C(C)C)[C@@H](C)O
notes: also called compound 4
In the case of B3, the “Ratio hCT/hAmylin binding” value [1] is reported as 2.1 and the IC50 [2] is reported as 0.688 nM.

B4: N^α1-[(4S)-4-carboxy-4-(19-carboxynonadecanoylamino)butanoyl]-[Arg17,Pro21,Pro27,Glu35]-h-amylin (peptide)
peptide: KCNTATCATQRLANFLRHSSPNFGAIPSSTNVGSETY
modifications: C20 diacid-gGlu on the alpha amino group of the N-terminal residue; disulfide bridge Cys2-Cys7; C-terminal amide
notes: also called compound 23
B4 was tested, and the “Ratio hCT/hAmylin binding” value [1] was 25 and the IC50 [2] was 21.8 nM.

B5: N^α1-[(4S)-4-carboxy-4-(19-carboxynonadecanoylamino)butanoyl]-[Arg17,Pro21,Pro27,His34]-h-amylin (peptide)
peptide: KCNTATCATQRLANFLRHSSPNFGAIPSSTNVGHNTY
modifications: C20 diacid-gGlu on the alpha amino group of the N-terminal residue; disulfide bridge Cys2-Cys7; C-terminal amide
notes: also called compound 40
For B5, the “Ratio hCT/hAmylin binding” value [1] was 31.1 and the IC50 [2] was 17.1 nM.

B6: N^α1-[(4S)-4-carboxy-4-(19-carboxynonadecanoylamino)butanoyl]-[Asp14,Arg17,Pro21,Pro27,Pro37]-h-amylin (peptide)
peptide: {C20 diacid-γGlu}-KCNTATCATQRLADFLRHSSPNFGAIPSSTNVGSNTP-NH2
modifications: disulfide 2-7
SMILES: CC[C@H](C)[C@H](NC(=O)[C@H](C)NC(=O)CNC(=O)[C@H](Cc1ccccc1)NC(=O)[C@H](CC(N)=O)NC(=O)[C@@H]1CCCN1C(=O)[C@H](CO)NC(=O)[C@H](CO)NC(=O)[C@H](Cc1c[nH]cn1)NC(=O)[C@H](CCCNC(=N)N)NC(=O)[C@H](CC(C)C)NC(=O)[C@H](Cc1ccccc1)NC(=O)[C@H](CC(=O)O)NC(=O)[C@H](C)NC(=O)[C@H](CC(C)C)NC(=O)[C@H](CCCNC(=N)N)NC(=O)[C@H](CCC(N)=O)NC(=O)[C@@H](NC(=O)[C@H](C)NC(=O)[C@@H]1CSSC[C@H](NC(=O)[C@H](CCCCN)NC(=O)CC[C@H](NC(=O)CCCCCCCCCCCCCCCCCCC(=O)O)C(=O)O)C(=O)N[C@@H](CC(N)=O)C(=O)N[C@@H]([C@@H](C)O)C(=O)N[C@@H](C)C(=O)N[C@@H]([C@@H](C)O)C(=O)N1)[C@@H](C)O)C(=O)N1CCC[C@H]1C(=O)N[C@@H](CO)C(=O)N[C@@H](CO)C(=O)N[C@H](C(=O)N[C@@H](CC(N)=O)C(=O)N[C@H](C(=O)NCC(=O)N[C@@H](CO)C(=O)N[C@@H](CC(N)=O)C(=O)N[C@H](C(=O)N1CCC[C@H]1C(N)=O)[C@@H](C)O)C(C)C)[C@@H](C)O
notes: also called compound 10
For B6, the “Ratio hCT/hAmylin binding” value [1] was 1.2 and the IC50 [2] was 0.099 nM.

B7: N^α1-[(4S)-4-carboxy-4-(19-carboxynonadecanoylamino)butanoyl]-[Arg17,Pro21,Pro27,Arg34]-h-amylin (peptide)
peptide: KCNTATCATQRLANFLRHSSPNFGAIPSSTNVGRNTY
modifications: C20 diacid-gGlu on the alpha amino group of the N-terminal residue; disulfide bridge Cys2-Cys7; C-terminal amide
notes: also called compound 39
For B7, the “Ratio hCT/hAmylin binding” value [1] was 29 and the IC50 [2] was 19.3 nM.

From patent US20140087995A1 (published 2014)
